This note sets out measurements from patent US8617883.

The target of this experiment is Ephrin-B2 (human, full length coding sequence, expressed on mesenchymal stem cells nucleofected with pEphrin-B2/IRES2-eGFP) (human) (UniProt P52799). The experiment can be described thus: flow cytometry, Fc-chimera binding to Ephrin-B2-transfected MSCs against untransfected MSCs, FITC anti-human IgG1 detection. A general note: Flow cytometry measures light scatter and fluorescence of single cells or particles in a stream.
Chain of UniProt P52799 (P52799 28-333): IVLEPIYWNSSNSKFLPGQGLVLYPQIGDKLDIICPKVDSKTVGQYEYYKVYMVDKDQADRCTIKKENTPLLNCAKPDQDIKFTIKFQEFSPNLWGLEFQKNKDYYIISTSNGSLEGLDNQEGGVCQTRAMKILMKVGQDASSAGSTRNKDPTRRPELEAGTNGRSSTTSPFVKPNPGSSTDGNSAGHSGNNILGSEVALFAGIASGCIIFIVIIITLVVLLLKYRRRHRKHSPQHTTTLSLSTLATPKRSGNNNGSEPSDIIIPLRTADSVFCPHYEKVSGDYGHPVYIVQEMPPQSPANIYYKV

Substance “Eph-B4/Fc chimera protein (pre-clustered) (Fc fusion)” came in with an increase in binding to transfected MSCs compared to normal cells of 22%.
